Data as given in PMC5882645, “NMR Structure, Dynamics and Interactions of the Integrin β2 Cytoplasmic Tail with Filamin Domain IgFLNa21” (Scientific Reports, 2018).
No end group written: not given here.

T1: IgFLNa21 domain of filamin A (Gly2236-Ser2329) (UniProt P21333 2236-2329)
T1 construct: filamin A, Ig-like repeat 21 (IgFLNa21), residues Gly2236-Ser2329; The same range also stands as the C-terminal part of the hybrid chain m5 (cloned in pET14b); the rows on the hybrid use m1 for this domain; also called IgFLNa21 filamin; wild-type IgFLNa21; source: E. coli rosetta, synthetic gene in pET24a, 15N/13C-labelled, purified (Ni-NTA, size-exclusion chromatography)
T1 sequence (looked up): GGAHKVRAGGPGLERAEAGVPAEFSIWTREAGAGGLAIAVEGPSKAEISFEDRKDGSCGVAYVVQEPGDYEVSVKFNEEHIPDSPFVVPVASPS

B1: Synthetic integrin full-length β2-CT (residues 724-769) (peptide, UniProt P05107 724-769, looked up)
chain: KALIHLSDLREYRRFEKEKLKSQWNNDNPLFKSATTTVMNPKFAES
notes: integrin β2 cytoplasmic tail, residues 724-769; also called full length integrin β2 CT; integrin β2 cytoplasmic tail; source: synthetic peptide, bought: GLBioChem (Shanghai), further purified by reverse phase HPLC
B2: C-terminal filamin-binding region (P752-N763) of integrin β2 CT, as it stands in the hybrid IgFLNa21 (peptide)
chain: PLFKSATTTVMN
modifications: also: fused via GASGSGASGS linker to IgFLNa21 N-terminus
notes: also called β2 CT peptide; β2 CT part of hybrid IgFLNa21; source: E. coli rosetta, purified (Ni-NTA, size-exclusion chromatography) as the N-terminal part of the hybrid chain

Legend:
[1] = biological target: T1, IgFLNa21 domain of filamin A …; assay: NMR titration; 15N-1H HSQC of IgFLNa21 (100 μM) with sequential additions of peptide at 1:0, 1:1, 1:2 and 1:3 ratios; 298 K; 25 mM sodium phosphate, 5 mM NaCl, 2 mM DTT, 10% D2O, pH 6.5; conditions: both partners purified
[2] = biological target: T1, IgFLNa21 domain of filamin A …; assay: NMR structure; solution structure of the hybrid chain (β2 CT 752-763 joined to IgFLNa21 by the linker …), 300 μM, 298 K; CYANA, refined by X-plor-NIH with explicit water; conditions: both partners purified

binding result [1]	binding result [2]	Binder
binds		B1
	binds	B2
